T1: bovine complement factor H from serum (bovine (endogenous in bovine serum), UniProt Q28085 19-1236)
T1 construct: complement factor H, bovine, native serum protein of 145 kDa; also called FH; bovine FH; source: endogenous, bovine serum (Sigma-Aldrich); purified from adult bovine serum (FHR-agarose, eluted with glycine-HCl pH 2.5)
T1 sequence: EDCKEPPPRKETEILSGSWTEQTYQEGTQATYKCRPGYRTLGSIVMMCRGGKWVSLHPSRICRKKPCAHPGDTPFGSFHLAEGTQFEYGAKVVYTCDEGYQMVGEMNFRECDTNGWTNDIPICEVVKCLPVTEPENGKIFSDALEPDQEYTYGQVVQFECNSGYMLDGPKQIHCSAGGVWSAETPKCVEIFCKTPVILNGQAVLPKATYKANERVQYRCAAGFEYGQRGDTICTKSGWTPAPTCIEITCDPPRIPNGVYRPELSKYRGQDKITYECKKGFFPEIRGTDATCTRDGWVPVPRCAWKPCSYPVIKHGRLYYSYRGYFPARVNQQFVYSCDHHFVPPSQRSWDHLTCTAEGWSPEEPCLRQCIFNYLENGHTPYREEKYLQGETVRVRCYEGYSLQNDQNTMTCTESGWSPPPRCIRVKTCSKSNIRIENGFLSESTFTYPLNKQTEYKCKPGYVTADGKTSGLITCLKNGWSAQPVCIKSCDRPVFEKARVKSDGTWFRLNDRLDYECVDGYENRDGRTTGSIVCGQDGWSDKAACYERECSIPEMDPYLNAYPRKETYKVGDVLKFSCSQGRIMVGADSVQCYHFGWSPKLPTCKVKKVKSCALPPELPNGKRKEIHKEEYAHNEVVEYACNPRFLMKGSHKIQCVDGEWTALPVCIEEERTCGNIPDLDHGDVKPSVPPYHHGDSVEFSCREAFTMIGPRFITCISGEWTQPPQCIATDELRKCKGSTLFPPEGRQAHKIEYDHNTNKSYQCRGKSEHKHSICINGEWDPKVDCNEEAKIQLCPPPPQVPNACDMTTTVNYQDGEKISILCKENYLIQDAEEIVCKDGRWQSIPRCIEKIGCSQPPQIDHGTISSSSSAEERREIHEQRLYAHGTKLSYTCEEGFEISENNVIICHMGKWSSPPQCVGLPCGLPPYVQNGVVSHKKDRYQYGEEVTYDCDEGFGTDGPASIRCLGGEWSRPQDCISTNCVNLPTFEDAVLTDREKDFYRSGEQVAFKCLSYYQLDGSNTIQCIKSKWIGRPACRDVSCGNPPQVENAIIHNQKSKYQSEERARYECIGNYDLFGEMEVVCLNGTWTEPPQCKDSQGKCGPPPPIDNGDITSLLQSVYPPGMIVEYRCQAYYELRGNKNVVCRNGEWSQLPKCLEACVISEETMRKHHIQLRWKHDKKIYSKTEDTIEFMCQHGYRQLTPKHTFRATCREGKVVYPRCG

T2: recombinant bovine FH, complete (residues 18-1236) (bovine, UniProt Q28085 18-1236)
T2 construct: complement factor H, bovine, complete (residues 18-1236); pDest12; CD33 signal peptide, then 10xHis, AviTag, GSGSGS linker and a TEV site before the ORF; also called full-length bovine FH; recombinant FH; source: G22 CHO cells, secreted, purified (Ni-NTA)
T2 sequence (looked up): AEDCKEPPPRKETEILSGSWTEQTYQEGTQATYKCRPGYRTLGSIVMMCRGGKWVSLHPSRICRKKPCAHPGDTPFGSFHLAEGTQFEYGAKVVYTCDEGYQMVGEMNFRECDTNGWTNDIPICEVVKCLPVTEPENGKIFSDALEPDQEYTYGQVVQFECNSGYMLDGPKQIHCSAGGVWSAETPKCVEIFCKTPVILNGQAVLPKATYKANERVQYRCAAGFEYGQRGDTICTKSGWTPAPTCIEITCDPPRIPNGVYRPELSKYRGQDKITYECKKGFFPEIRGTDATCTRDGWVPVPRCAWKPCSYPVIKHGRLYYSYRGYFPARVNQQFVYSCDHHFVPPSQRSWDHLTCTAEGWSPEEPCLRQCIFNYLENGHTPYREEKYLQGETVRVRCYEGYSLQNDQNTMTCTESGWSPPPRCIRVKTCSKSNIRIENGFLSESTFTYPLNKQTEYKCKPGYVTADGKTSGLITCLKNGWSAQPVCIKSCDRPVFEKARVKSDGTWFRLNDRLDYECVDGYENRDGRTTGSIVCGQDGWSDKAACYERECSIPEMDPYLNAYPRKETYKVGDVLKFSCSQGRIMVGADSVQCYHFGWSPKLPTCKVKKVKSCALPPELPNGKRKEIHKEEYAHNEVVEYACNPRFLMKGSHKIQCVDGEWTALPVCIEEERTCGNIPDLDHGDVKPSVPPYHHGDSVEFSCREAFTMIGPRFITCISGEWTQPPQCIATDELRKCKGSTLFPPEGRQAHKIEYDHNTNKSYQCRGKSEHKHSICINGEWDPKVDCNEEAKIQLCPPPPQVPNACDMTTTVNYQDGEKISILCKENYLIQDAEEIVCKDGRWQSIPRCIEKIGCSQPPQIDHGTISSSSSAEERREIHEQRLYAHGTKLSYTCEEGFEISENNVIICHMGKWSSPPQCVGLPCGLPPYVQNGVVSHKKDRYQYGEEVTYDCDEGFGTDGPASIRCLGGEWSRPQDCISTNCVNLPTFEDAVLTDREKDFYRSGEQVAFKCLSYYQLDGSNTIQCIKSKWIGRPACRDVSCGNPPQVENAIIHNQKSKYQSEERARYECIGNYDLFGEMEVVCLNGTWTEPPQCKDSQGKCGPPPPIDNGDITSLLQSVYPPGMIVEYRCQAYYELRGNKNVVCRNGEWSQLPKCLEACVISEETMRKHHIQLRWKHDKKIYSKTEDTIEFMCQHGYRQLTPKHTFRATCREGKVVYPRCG

B1: mouse FH domains 4-5-6 (residues 207-387) (domain or fragment, UniProt P06909 207-387, looked up)
chain: EILCTPPRVENGDGINVKPVYKENERYHYKCKHGYVPKERGDAVCTGSGWSSQPFCEEKRCSPPYILNGIYTPHRIIHRSDDEIRYECNYGFYPVTGSTVSKCTPTGWIPVPRCTLKPCEFPQFKYGRLYYEESLRPNFPVSIGNKYSYKCDNGFSPPSGYSWDYLRCTAQGWEPEVPCVR
notes: complement factor H, mouse, domains 4-5-6 (residues 207-387); pDest12; CD33 signal peptide, ORF, C-terminal GSGSGS linker, AviTag and 10xHis; also called mouse domains 4-5-6; source: G22 CHO cells, secreted, purified (Ni-NTA)
B2: human FH domains 4-5-6 (residues 207-387) (domain or fragment)
chain: not shown
notes: complement factor H, human, domains 4-5-6 (residues 207-387); pDest12; CD33 signal peptide, ORF, C-terminal GSGSGS linker, AviTag and 10xHis; also called human domains 4-5-6; source: G22 CHO cells, secreted, purified (Ni-NTA)
B3: bovine FH domain 5 (residues 264-323), as used in SPR (domain or fragment, UniProt Q28085 264-323, looked up)
chain: EITCDPPRIPNGVYRPELSKYRGQDKITYECKKGFFPEIRGTDATCTRDGWVPVPRCAWK
notes: complement factor H, bovine, domain 5 (residues 264-323); N-terminal tags, a TEV site and an extra serine-glycine linker before domain 5; also called domain 5 alone; source: G22 CHO cells, secreted, purified (Ni-NTA)
B4: bovine FH domains 4-5-6 (residues 207-385) (domain or fragment, UniProt Q28085 207-385, looked up)
chain: EIFCKTPVILNGQAVLPKATYKANERVQYRCAAGFEYGQRGDTICTKSGWTPAPTCIEITCDPPRIPNGVYRPELSKYRGQDKITYECKKGFFPEIRGTDATCTRDGWVPVPRCAWKPCSYPVIKHGRLYYSYRGYFPARVNQQFVYSCDHHFVPPSQRSWDHLTCTAEGWSPEEPCLR
notes: complement factor H, bovine, domains 4-5-6 (residues 207-385); pDest12; CD33 signal peptide, ORF, C-terminal GSGSGS linker, AviTag and 10xHis; source: G22 CHO cells, secreted, purified (Ni-NTA)
B5: C-terminally biotinylated FHR (residues 25-249, AviTag) (receptor)
chain: NDNLEAELEQTKALCEVAKQLRKLPLLTEERRFEAVGALEESKKAAKEGKKAAKRAEAGAVGGTSEQQQAAKRAREAATVAYEASVRAEAAAMEVKRFARALDSFESEYESVFSGLLRGAAEHGGNETIKQLAKECATAVADDVTPEALTRAAHNLRGLYMQDFAEEYLQEANEAANKLEELQKATAETVRAADAADDAKSEAQEEAAQFPEIDDDDSDEDKEDE
modifications: biotin on the C-terminal AviTag
notes: T. brucei FHR, Tb927.5.4020, residues 25-249, synthetic gene optimized for E. coli in pET15b; TEV site after the His tag; GSGSGSS linker between FHR and the AviTag; also called FHR WT; WT FHR; source: E. coli BL21(DE3), purified (Ni-NTA), biotinylated with BirA; not shown: His6, N-terminal, cleaved; AviTag, C-terminal, kept

Legend:
Details in all cases: both partners purified
[1] = molecular target: B5; assay: SPR; biotinylated FHR or mutant 2 on a streptavidin chip, mouse or human FH domains 4-5-6 flowed over; 20 °C, 10 mM HEPES, 150 mM NaCl, 0.005% Tween-20 pH 7.5; steady-state analysis
[2] = molecular target: B5; assay: SPR; biotinylated FHR or mutant on a streptavidin chip (Biacore T-100/T-200), FH proteins flowed over in twofold dilutions; 20 °C, 10 mM HEPES, 150 mM NaCl, 0.005% Tween-20 pH 7.5; kinetic fit: two-state model (bovine FH) or 1:1 model (bovine domains 4-5-6 and 5)
[3] = molecular target: T1, bovine complement factor H from serum; assay: as above
[4] = molecular target: T2, recombinant bovine FH, complete …; assay: as above

Binder | Kd [1] | Kd [2] | also measured
B1 | 12000 nM |  | 
B2 | 8700 nM |  | 
B3 |  | 562 nM | 
B4 |  | 167 nM | 
B5 |  |  | Kd [3]: 153 nM; Kd [4]: 114 nM
